In publication PMC7335780, “Role of folding kinetics of secondary structures in telomeric G-overhangs in the regulation of telomere maintenance in Saccharomyces cerevisiae”:

Assays:
Cdc13-DBD [1] = molecular target: T1, Cdc13-DBD (Saccharomyces cerevisiae (strain SCY325), UniProt P32797 497-694); experiment: competition; competitor in water, 50 or 75 nM, vs 32P-ONG11; EMSA: 1x K+ buffer (20 mM potassium phosphate pH 7.0, 135 mM KCl, 9% glycerol), 10 min at 22 C/RT, 6% PAGE in 0.5x TBE; NMR in K+TD (K+ buffer + 0.25% Triton X-100, 1 mM DTT); conditions: protein: recombinant, tags: GST tag (pGEX-6T-2) removed with HRV 3C protease, vector-derived residues may remain, unfolded single strand
T1 sequence: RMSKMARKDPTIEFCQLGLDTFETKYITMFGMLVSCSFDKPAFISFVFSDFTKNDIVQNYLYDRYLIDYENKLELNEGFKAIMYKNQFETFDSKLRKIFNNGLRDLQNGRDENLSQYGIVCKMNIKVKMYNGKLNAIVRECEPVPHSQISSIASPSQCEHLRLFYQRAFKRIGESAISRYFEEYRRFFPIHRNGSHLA

Cdc13-DBD [2] = molecular target: T1, Cdc13-DBD; experiment: EMSA; freshly boiled probe, protein titration; EMSA: 1x K+ buffer (20 mM potassium phosphate pH 7.0, 135 mM KCl, 9% glycerol), 10 min at 22 C/RT, 6% PAGE in 0.5x TBE; NMR in K+TD (K+ buffer + 0.25% Triton X-100, 1 mM DTT); conditions: protein: recombinant; tags: GST tag (pGEX-6T-2) removed with HRV 3C protease; vector-derived residues may remain; label: 5'-32P; single strand when freshly boiled; G-hairpin after long folding

Binder: GTGTGGGTGTG (ssDNA) [ONG11 unfolded (H2O or freshly boiled)]
- binding result (Cdc13-DBD [1]): binds

Binder: GTGTGGGTGTGGTGTGGGTGTGGTGTGGGTGTG (ssDNA) [ONG1 unfolded (H2O)]
- binding result (Cdc13-DBD [1]; label: none): binds

Binder: GTGTGGGTGTG (ssDNA, 5' phosphate) [ONG11 5'-32P probe]
- binding result (Cdc13-DBD [2]): binds
